Reference: the supplement of paper PMC9233669
Variants at the floor of the assay were thinned out.

Columns and labels:
biotinyl-Phe-oxazolone = test: self-aminoacylation, catalytic enhancement (BFO) (fold over background); higher = more active; k-Seq, kA / k0A0; sequences stand for … in GGGAAUGGAUCCACAUCUACGAAUUC…UUCACUGCAGACUUGACGAAGCUG
In short: (§1)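 Catalytic enhancement equals the median kA over the uncatalyzed rate, the latter read from the low-activity peak of a bimodal Gaussian fit. Values of kA came from fitting each sequence's fraction reacted to a pseudo-first-order model, with 1000 bootstraps. Reacted RNA was captured with streptavidin and quantified by triplicate qPCR and Illumina sequencing after 90 minutes at room temperature with 2–1250 μM biotinyl-aminoacyl-oxazolone and 0.43 μM mutagenized RNA pools bearing a 21-nt variable region.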

biotinyl-Trp-oxazolone = test: self-aminoacylation, catalytic enhancement (BWO) (fold over background); higher = more active; k-Seq, kA / k0A0; sequences stand for … in GGGAAUGGAUCCACAUCUACGAAUUC…UUCACUGCAGACUUGACGAAGCUG
In short: as §1

biotinyl-Met-oxazolone = test: self-aminoacylation, catalytic enhancement (BMO) (fold over background); higher = more active; k-Seq, kA / k0A0; sequences stand for … in GGGAAUGGAUCCACAUCUACGAAUUC…UUCACUGCAGACUUGACGAAGCUG
In short: as §1

biotinyl-Val-oxazolone = test: self-aminoacylation, catalytic enhancement (BVO) (fold over background); higher = more active; k-Seq, kA / k0A0; sequences stand for … in GGGAAUGGAUCCACAUCUACGAAUUC…UUCACUGCAGACUUGACGAAGCUG
In short: as §1

biotinyl-Leu-oxazolone = test: self-aminoacylation, catalytic enhancement (BLO) (fold over background); higher = more active; k-Seq, kA / k0A0; sequences stand for … in GGGAAUGGAUCCACAUCUACGAAUUC…UUCACUGCAGACUUGACGAAGCUG
In short: as §1

biotinyl-Ile-oxazolone = test: self-aminoacylation, catalytic enhancement (BIO) (fold over background); higher = more active; k-Seq, kA / k0A0; sequences stand for … in GGGAAUGGAUCCACAUCUACGAAUUC…UUCACUGCAGACUUGACGAAGCUG
In short: as §1

Sequence	self-aminoacylation (biotinyl-Phe-oxazolone)	self-aminoacylation (biotinyl-Trp-oxazolone)	self-aminoacylation (biotinyl-Met-oxazolone)	self-aminoacylation (biotinyl-Val-oxazolone)	self-aminoacylation (biotinyl-Leu-oxazolone)	self-aminoacylation (biotinyl-Ile-oxazolone)
AUUACCCUGGUCCUCGAGUGC [Fam2.1 aminoacylation ribozyme variant]	2.51	1.31	0.658	1.06	1.07	0.969
AAGUUUGCUAAUAGGCGCAAU [Fam3.1 aminoacylation ribozyme variant]	1.52	0.968	1.71	1.58	1.46	1.6
AUUCAGCUAGGUCAUCGCGUG [Fam2.2 aminoacylation ribozyme variant]	54.8	5.71	6.28	5.79	6.83	4.48
ACACACUUCAGGCAAUCGGUC [Fam1B.1 aminoacylation ribozyme variant]	1.75	1.84	1.38	1.44	1.42	1.56
AUUCACCUAGGUCGUCGCGUG [Fam2.2 aminoacylation ribozyme variant]	39	5.27	5.72	3.84	7.92	3.52
AUUCCCCUGGUCAUCGAGGGA [Fam2.1 aminoacylation ribozyme variant]	1.62	1.99	1.29	1.55	1.56	1.42
AUUACACAGGUCAUCGAGUGA [Fam2.1 aminoacylation ribozyme variant]	8.1	5.05	3.66	2.44	3.37	2.5
CCACACCUCAAGCGAUCGGUC [Fam1B.1 aminoacylation ribozyme variant]	1.09	1.5	1.33	1.73	1.69	1.31
CCACGCUUCAAGCAAACGGUC [Fam1B.1 aminoacylation ribozyme variant]	0.644	0.544	0.457	0.665	0.477	0.647
CCACACUCCACGCAAUCGGUC [Fam1B.1 aminoacylation ribozyme variant]	0.759	1.18	1	1.62	1.2	1.51
AUUACCCUUGUCAUCAAGUGA [Fam2.1 aminoacylation ribozyme variant]	12.5	6.3	4.86	2.77	4.43	2.2
AUUACCAUGGUCGUCGAGUGA [Fam2.1 aminoacylation ribozyme variant]	0.902	1.48	1.3	1.08	1.25	1.21
CCACACUUCAAGUGAUCGGUC [Fam1B.1 aminoacylation ribozyme variant]	1.72	1.24	1.1	1.06	0.951	1.04
AAGUCUGCUAAUAGUCACAAG [Fam3.1 aminoacylation ribozyme variant]	12.6	3.73	1.95	1.25	1.3	1.24
AUUCGCCUAGGUCACCGGGUG [Fam2.2 aminoacylation ribozyme variant]	49	5.18	5.69	4.27	8.04	4.4
AUUACACGGGUCAUCGAGUGA [Fam2.1 aminoacylation ribozyme variant]	21.7	5.36	4.62	3.1	4.33	2.64
AUUACCCUGGUCACGGAGUGA [Fam2.1 aminoacylation ribozyme variant]	37.5	8.54	7.34	3.92	7.68	3.43
AUUACUCUGGUCAUCGAGUGC [Fam2.1 aminoacylation ribozyme variant]	0.969	1.32	1.19	1.05	1.42	1.1
GCGCACUUCAAGCAAUCGGUC [Fam1B.1 aminoacylation ribozyme variant]	41.1	29.6	2.04	2.2	2.65	2.12
CUACUUCAAACAAUCGUUCUU [Fam1A.1 aminoacylation ribozyme variant]	0.947	0.574	0.716	0.729	0.64	0.712
CUACGUAAAACAAUCGGUCUG [Fam1A.1 aminoacylation ribozyme variant]	1.38	0.819	0.999	0.999	0.755	1.18
ACUCACCUAGGUCAUGGGGUG [Fam2.2 aminoacylation ribozyme variant]	24.8	4.43	3.95	4	4.65	3.61
AUACACCUAGGUCACCGGGUG [Fam2.2 aminoacylation ribozyme variant]	23.3	3.79	3.09	3.23	3.78	3.29
AAGUUUGCUAAUAGUCGCGCG [Fam3.1 aminoacylation ribozyme variant]	20.9	5.74	3.95	2.94	4.77	3.47
AUGACCCUGGUCAACGAGUGA [Fam2.1 aminoacylation ribozyme variant]	32.5	6.86	5.77	3.52	6.02	3.48
AUUCACCCAGGUCAUCGGGCG [Fam2.2 aminoacylation ribozyme variant]	18	2.97	3.77	2.62	4.5	2.72

Sequence	self-aminoacylation (biotinyl-Phe-oxazolone)	self-aminoacylation (biotinyl-Trp-oxazolone)	self-aminoacylation (biotinyl-Met-oxazolone)	self-aminoacylation (biotinyl-Val-oxazolone)	self-aminoacylation (biotinyl-Leu-oxazolone)	self-aminoacylation (biotinyl-Ile-oxazolone)
AUUCACCUAGGCCACCGGGUG [Fam2.2 aminoacylation ribozyme variant]	13.6	4.16	5.04	3.27	6.51	3.83
AUUCACCUCGGUUAUCGGGUG [Fam2.2 aminoacylation ribozyme variant]	41.1	7.82	5.58	4.58	7.66	4.48
CCACACUUCAAGCUAUCGGAC [Fam1B.1 aminoacylation ribozyme variant]	0.941	0.582	0.654	1.01	0.681	0.982
CUACUUCAAACAAAAGGUCUG [Fam1A.1 aminoacylation ribozyme variant]	0.784	0.592	0.624	0.946	0.618	0.822
AUUACCCUGGUCAUCGGGUGC [Fam2.1 aminoacylation ribozyme variant]	211	48.7	39.2	18.9	52.5	13.4
AUUCAGCUUGGUCAUCGGGUG [Fam2.2 aminoacylation ribozyme variant]	14	4.05	3.5	3.37	3.63	2.75
UUACAUCAAACAAUCGGUCUG [Fam1A.1 aminoacylation ribozyme variant]	3.42	2.51	1.19	1.17	1.17	1.12
UGUCACCUAGGUCAUCGGGUG [Fam2.2 aminoacylation ribozyme variant]	23.9	5.31	4.27	3.6	3.64	3.84
AAGUUUGCUAAUAGUGGCAAU [Fam3.1 aminoacylation ribozyme variant]	1.43	0.811	1.16	1.16	0.961	1.08
AUUACCCUGGUCUUCGAGUCA [Fam2.1 aminoacylation ribozyme variant]	0.638	0.688	0.844	0.873	0.903	0.953
AUUACCCUGUUCACCGAGUGA [Fam2.1 aminoacylation ribozyme variant]	77.2	12.7	11	5	11.6	4.79
AUUCCCCUAGGUCAUCGGGAG [Fam2.2 aminoacylation ribozyme variant]	19.4	8.9	8.27	6.76	9.02	6.89
AUAACCCUGGCCAUCGAGUGA [Fam2.1 aminoacylation ribozyme variant]	11.4	3.57	4.48	2.09	2.71	3.35
CAACUUCAUACAAUCGGUCUG [Fam1A.1 aminoacylation ribozyme variant]	1.65	0.771	0.861	0.962	1.04	1.06
AUUACCCUGCUCAUAGAGUGA [Fam2.1 aminoacylation ribozyme variant]	57.5	10.7	9.74	4.28	8.96	3.87
CUACUUCAUACAAUUGGUCUG [Fam1A.1 aminoacylation ribozyme variant]	0.656	0.453	0.755	0.849	0.731	0.743
AAGUUUGCCAAUGGUCGCAAG [Fam3.1 aminoacylation ribozyme variant]	0.499	1.01	1.02	0.852	1	0.987
CUACUUCAUACAGUCGGUCUG [Fam1A.1 aminoacylation ribozyme variant]	0.496	0.282	0.52	0.67	0.556	0.574
AUUAUCCUGGGCAUCGAGUGA [Fam2.1 aminoacylation ribozyme variant]	36.3	6.86	5.87	2.94	6.24	3.07
CCACACUCCAAGCAAUCGGAC [Fam1B.1 aminoacylation ribozyme variant]	0.729	0.574	0.74	0.937	1.37	1.09
AAGUUUGCUAAGAGUAGCAAG [Fam3.1 aminoacylation ribozyme variant]	1.3	1.17	1.1	0.727	1.21	0.857
AAGUUUGCUAAUUGUCUCAAG [Fam3.1 aminoacylation ribozyme variant]	1.05	0.743	0.943	0.881	0.852	0.937
AAGUUUGCUAUUAGUCCCAAG [Fam3.1 aminoacylation ribozyme variant]	1.45	2	0.99	1.02	1.04	0.989
CCGCACUUCAGGCAAUCGGUC [Fam1B.1 aminoacylation ribozyme variant]	6.33	2.88	1.98	2.87	2.33	1.76
AAUAACCUAGGUCAUCGGGUG [Fam2.2 aminoacylation ribozyme variant]	22.8	5.23	4.25	3.3	4.57	3.18
